US20230149465A1

Molecular target: human IFNγ (human) (UniProt P01579)
Experiment: cell-based or functional assay

Chain of UniProt P01579 (P01579 24-166 limits assumed): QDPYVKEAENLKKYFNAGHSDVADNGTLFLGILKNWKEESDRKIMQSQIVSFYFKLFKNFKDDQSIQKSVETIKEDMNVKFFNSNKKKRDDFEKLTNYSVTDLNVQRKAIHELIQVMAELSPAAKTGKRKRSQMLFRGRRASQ

inhibition of IFNγ signaling at dilution 0.5 of supernatant, HEK-Blue IFNγ reporter cells: 80%
Substance: Amg-HL, anti-IFNγ scFv from AMG811 (heavy chain variable region to light chain variable region)
